B1: SF3B1 (natural protein, human (endogenous in HEK293T.A2), UniProt O75533 1-1304, looked up)
chain: MAKIAKTHEDIEAQIREIQGKKAALDEAQGVGLDSTGYYDQEIYGGSDSRFAGYVTSIAATELEDDDDDYSSSTSLLGQKKPGYHAPVALLNDIPQSTEQYDPFAEHRPPKIADREDEYKKHRRTMIISPERLDPFADGGKTPDPKMNARTYMDVMREQHLTKEEREIRQQLAEKAKAGELKVVNGAAASQPPSKRKRRWDQTADQTPGATPKKLSSWDQAETPGHTPSLRWDETPGRAKGSETPGATPGSKIWDPTPSHTPAGAATPGRGDTPGHATPGHGGATSSARKNRWDETPKTERDTPGHGSGWAETPRTDRGGDSIGETPTPGASKRKSRWDETPASQMGGSTPVLTPGKTPIGTPAMNMATPTPGHIMSMTPEQLQAWRWEREIDERNRPLSDEELDAMFPEGYKVLPPPAGYVPIRTPARKLTATPTPLGGMTGFHMQTEDRTMKSVNDQPSGNLPFLKPDDIQYFDKLLVDVDESTLSPEEQKERKIMKLLLKIKNGTPPMRKAALRQITDKAREFGAGPLFNQILPLLMSPTLEDQERHLLVKVIDRILYKLDDLVRPYVHKILVVIEPLLIDEDYYARVEGREIISNLAKAAGLATMISTMRPDIDNMDEYVRNTTARAFAVVASALGIPSLLPFLKAVCKSKKSWQARHTGIKIVQQIAILMGCAILPHLRSLVEIIEHGLVDEQQKVRTISALAIAALAEAATPYGIESFDSVLKPLWKGIRQHRGKGLAAFLKAIGYLIPLMDAEYANYYTREVMLILIREFQSPDEEMKKIVLKVVKQCCGTDGVEANYIKTEILPPFFKHFWQHRMALDRRNYRQLVDTTVELANKVGAAEIISRIVDDLKDEAEQYRKMVMETIEKIMGNLGAADIDHKLEEQLIDGILYAFQEQTTEDSVMLNGFGTVVNALGKRVKPYLPQICGTVLWRLNNKSAKVRQQAADLISRTAVVMKTCQEEKLMGHLGVVLYEYLGEEYPEVLGSILGALKAIVNVIGMHKMTPPIKDLLPRLTPILKNRHEKVQENCIDLVGRIADRGAEYVSAREWMRICFELLELLKAHKKAIRRATVNTFGYIAKAIGPHDVLATLLNNLKVQERQNRVCTTVAIAIVAETCSPFTVLPALMNEYRVPELNVQNGVLKSLSFLFEYIGEMGKDYIYAVTPLLEDALMDRDLVHRQTASAVVQHMSLGVYGFGCEDSLNHLLNYVWPNVFETSPHVIQAVMGALEGLRVAIGPCRMLQYCLQGLFHPARKVRDVYWKIYNSIYIGSQDALIAHYPRIYNDDKNTYIRYELDYIL
B2: U2AF2 (natural protein, human (endogenous in HEK293T.A2), UniProt P26368 1-475, looked up)
chain: MSDFDEFERQLNENKQERDKENRHRKRSHSRSRSRDRKRRSRSRDRRNRDQRSASRDRRRRSKPLTRGAKEEHGGLIRSPRHEKKKKVRKYWDVPPPGFEHITPMQYKAMQAAGQIPATALLPTMTPDGLAVTPTPVPVVGSQMTRQARRLYVGNIPFGITEEAMMDFFNAQMRLGGLTQAPGNPVLAVQINQDKNFAFLEFRSVDETTQAMAFDGIIFQGQSLKIRRPHDYQPLPGMSENPSVYVPGVVSTVVPDSAHKLFIGGLPNYLNDDQVKELLTSFGPLKAFNLVKDSATGLSKGYAFCEYVDINVTDQAIAGLNGMQLGDKKLLVQRASVGAKNATLVSPPSTINQTPVTLQVPGLMSSQVQMGGHPTEVLCLMNMVLPEELLDDEEYEEIVEDVRDECSKYGLVKSIEIPRPVDGVEVPGCGKIFVEFTSVFDCQKAMQGLTGRKFANRVVVTKYCDPDSYHRRDFW

Legend:
[1] = biological target: FLAG-AP-DHX15 R222G (human, UniProt O43143 1-795, R222G); test: proximity labelling
Chain of FLAG-AP-DHX15 R222G (O43143 whole entry R222G): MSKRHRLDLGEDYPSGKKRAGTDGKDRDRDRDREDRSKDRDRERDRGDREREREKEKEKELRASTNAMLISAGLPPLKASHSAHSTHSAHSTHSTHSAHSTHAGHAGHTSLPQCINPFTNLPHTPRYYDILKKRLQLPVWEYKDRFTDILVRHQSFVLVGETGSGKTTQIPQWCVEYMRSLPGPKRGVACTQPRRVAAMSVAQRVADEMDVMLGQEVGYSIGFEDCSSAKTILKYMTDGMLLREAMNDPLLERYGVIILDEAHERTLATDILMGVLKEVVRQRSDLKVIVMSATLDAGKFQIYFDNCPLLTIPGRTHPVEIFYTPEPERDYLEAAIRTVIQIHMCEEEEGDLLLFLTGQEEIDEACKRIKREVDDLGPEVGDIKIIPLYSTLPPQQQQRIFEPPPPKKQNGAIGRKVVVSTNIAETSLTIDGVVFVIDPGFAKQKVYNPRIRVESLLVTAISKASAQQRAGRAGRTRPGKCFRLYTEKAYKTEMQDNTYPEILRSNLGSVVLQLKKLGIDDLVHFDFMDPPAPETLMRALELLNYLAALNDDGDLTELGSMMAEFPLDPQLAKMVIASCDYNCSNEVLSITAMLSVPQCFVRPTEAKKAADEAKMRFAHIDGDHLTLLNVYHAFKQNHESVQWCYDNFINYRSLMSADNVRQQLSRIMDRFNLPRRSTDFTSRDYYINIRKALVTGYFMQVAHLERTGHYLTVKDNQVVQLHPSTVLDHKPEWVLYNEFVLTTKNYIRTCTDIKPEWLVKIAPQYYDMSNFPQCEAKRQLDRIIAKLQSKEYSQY

[2] = biological target: FLAG-AP-DHX15 LML triple mutant L536A/M537A/L540A (human, UniProt O43143 1-795, L536A | M537A | L540A); test: proximity labelling
Chain of FLAG-AP-DHX15 LML triple mutant L536A/M537A/L540A (O43143 whole entry L536A/M537A/L540A): as the sequence (O43143 whole entry R222G) above, with G222R, L536A, M537A, L540A counted along it

Binder | level in the streptavidin pull-down (percent) [1] [%] | level in the streptavidin pull-down (percent) [2] [%]
B1 | 76 | 36
B2 | 80 | 47

Source: paper PMC10842378 (Cell reports, 2023)
